{"source": "paper doi:10.1101/2022.10.28.514248", "about": "(bioRxiv, 2022)", "proteins": {"B1": {"name": "GDAP1ΔTM T157P (Ganglioside-induced differentiation-associated protein 1, amino acids 1-322, T157P) (domain or fragment, mouse)", "chain": "GGSMARRQDEARAGVPLRVEGPPDKEVHLILYHWTHSFSSQKVRLVIAEKALKCEEHDVSLPLSEHNEPWFMRLNSAGEVPVLVHGENIICEATQIIDYLEQTFLDERTPRLMPDEGSMYYPRVQHYRELLDSLPMDAYTHGCILHPELTVDSMIPAYAPTRIRSQIGNTESELKKLAEENPDLQEAYIAKQKRLKSKLLDHDNVKYLKKILDELEKVLDQVETELQRRNEETPEEGNQPWLCGESFTLADVSLAVTLHRLKFLGFARRNWGHGKRPNLETYYERVLKRKTFNKVLGHVNNILISAVLPTAFRVAKKRAPKVLGS"}}, "biological_target": "the molecule itself", "test": "crystal structure", "data": [{"protein": "B1", "values": [{"measurement": "binding result", "result": "binds"}]}]}
